Results taken from publication PMC4072508, “Genome-Wide Prediction and Validation of Peptides That Bind Human Prosurvival Bcl-2 Proteins” (PLoS Computational Biology, 2014).

T1: Bcl-w, Q92843
T1 chain: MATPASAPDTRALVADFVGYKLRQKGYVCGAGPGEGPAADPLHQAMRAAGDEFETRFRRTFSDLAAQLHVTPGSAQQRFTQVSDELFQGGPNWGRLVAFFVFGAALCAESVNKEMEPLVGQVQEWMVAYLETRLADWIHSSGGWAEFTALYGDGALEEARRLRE

T2: Bfl-1, Q16548
T2 chain: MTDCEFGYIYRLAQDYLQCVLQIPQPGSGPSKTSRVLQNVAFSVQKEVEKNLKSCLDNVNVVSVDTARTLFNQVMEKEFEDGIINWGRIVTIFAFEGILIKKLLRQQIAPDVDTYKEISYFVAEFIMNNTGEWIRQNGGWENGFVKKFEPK

T3: Mcl-1, Q07820
T3 chain: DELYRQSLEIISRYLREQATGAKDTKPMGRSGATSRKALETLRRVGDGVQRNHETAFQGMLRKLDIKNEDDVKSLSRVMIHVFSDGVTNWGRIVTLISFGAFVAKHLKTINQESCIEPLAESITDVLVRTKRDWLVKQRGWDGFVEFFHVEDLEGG

B1: FOLH1B (peptide)
chain: PFDCRDYAVVLRKYADKIYNISMKHP
B2: BCL2L14 (peptide)
chain: EQILAKIVELLKYSGDQLERKLKKDK
B3: C17orf103 (peptide)
chain: AYRGRGIAKHLAKAALDFVVEEDLKA
B4: BNIP1 (peptide)
chain: FQQLRHRIQDLEQLAKEQDKESEKQL
B5: TAF1 (peptide)
chain: EGTKIVLGKQLIESADEVRRKSLVLK
B6: TNKS (peptide)
chain: AGLDMNISQFLKSLGLEHLRDIFETE
B7: LYZ (peptide)
chain: VFERCELARTLKRLGMDGYRGISLAN
B8: AVEN (peptide)
chain: SQRGTDFSVLLSSAGDSFSQFRFAEE
B9: RAD9A (peptide)
chain: VKVLGKAVHSLSRIGDELYLEPLEDG
B10: RAD9B (peptide)
chain: VKVFGKAVQALSRISDEFWLDPSKKG
B11: TNKS (peptide)
chain: HPKRKQVTELLLRKGANVNEKNKDFM
B12: LMO2 (peptide)
chain: CLSCDLCGCRLGEVGRRLYYKLGRKL
B13: DEDD (peptide)
chain: VDVIDDHERGLIRNGRDFLLALERQG
B14: BIK (peptide)
chain: MEGSDALALRLACIGDEMDVSLRAPR
B15: TNKS (peptide)
chain: KGKIDVCIVLLQHGADPNIRNTDGKS
B16: PIGR (peptide)
chain: QLRLSDAGQYLCQAGDDSNSNKKNAD
B17: HHIP (peptide)
chain: YTCRGHIPGFLQTTADEFCFYYARKD
B18: PCNA (peptide)
chain: SGEFARICRDLSHIGDAVVISCAKDG
B19: SETD2 (peptide)
chain: HVDGLHSSEELRNLGWDFSQEKPSTT
B20: FAM149A (peptide)
chain: CGEWTRRSLHLRVLGRQLILPTDKGV
B21: SYT1 (peptide)
chain: FVGYNSTGAELRHWLDMLANPRRPIA
B22: SPHKAP (peptide)
chain: TSRINEVQVNDSLLGDDLLLPAQSTL

Target: T1, Bcl-w, Q92843
Experiment: peptide SPOT array, c-Myc-tagged receptor at 1 uM or 100 nM, anti-c-Myc-Cy3

Row | SPOT signal as a fraction of Bim BH3's signal on the same receptor and array | Binder
1 | 1.25 | B1
2 | 0.74 | B2
3 | 0.29 | B3
4 | 0.04 | B4
5 | 0.48 | B5
6 | 0.02 | B6
7 | 0.69 | B7
8 | 0.07 | B8
9 | 0.02 | B9
10 | 0.89 | B10
11 | 0.5 | B11
12 | 1.8 | B12
13 | 0.02 | B13
14 | 0.74 | B14
15 | 0.03 | B15
16 | 0.02 | B16
17 | 0.1 | B17
18 | 0.03 | B18
19 | 0.02 | B19

Target: Bcl-2, P10415
Sequence (P10415 1-217): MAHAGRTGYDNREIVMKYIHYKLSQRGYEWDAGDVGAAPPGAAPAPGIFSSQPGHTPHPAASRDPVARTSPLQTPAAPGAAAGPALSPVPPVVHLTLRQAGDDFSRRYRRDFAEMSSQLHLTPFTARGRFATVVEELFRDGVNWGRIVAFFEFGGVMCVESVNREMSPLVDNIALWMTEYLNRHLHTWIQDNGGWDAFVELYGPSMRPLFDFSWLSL
Experiment: as above

Row | SPOT signal as a fraction of Bim BH3's signal on the same receptor and array | Binder
20 | 0.36 | B1
21 | 0.49 | B2
22 | 0.05 | B3
23 | 0.02 | B4
24 | 0.07 | B5
25 | 0.01 | B6
26 | 0.27 | B7
27 | 0.02 | B8
28 | 0.01 | B9
29 | 0.1 | B10
30 | 0.13 | B11
31 | 0.59 | B12
32 | 0.01 | B13
33 | 0.72 | B14
34 | 0.02 | B15
35 | 0.01 | B16
36 | 0.02 | B17
37 | 0.01 | B18
38 | 0.01 | B19

Target: T2, Bfl-1, Q16548
Experiment: as above

Row | SPOT signal as a fraction of Bim BH3's signal on the same receptor and array | Binder
39 | 0.63 | B1
40 | 0.75 | B2
41 | 0.11 | B3
42 | 0.08 | B4
43 | 0.34 | B5
44 | 0.03 | B6
45 | 0.7 | B20
46 | 0.74 | B7
47 | 0.03 | B8
48 | 0.03 | B9
49 | 0.23 | B10
50 | 0.48 | B11
51 | 1.61 | B12
52 | 0.02 | B13
53 | 0.43 | B14
54 | 0.21 | B21
55 | 0.1 | B15
56 | 0.03 | B16
57 | 0.03 | B22
58 | 0.06 | B17
59 | 0.03 | B18
60 | 0.02 | B19

Target: Bcl-xL, Q07817
Sequence (Q07817 1-209): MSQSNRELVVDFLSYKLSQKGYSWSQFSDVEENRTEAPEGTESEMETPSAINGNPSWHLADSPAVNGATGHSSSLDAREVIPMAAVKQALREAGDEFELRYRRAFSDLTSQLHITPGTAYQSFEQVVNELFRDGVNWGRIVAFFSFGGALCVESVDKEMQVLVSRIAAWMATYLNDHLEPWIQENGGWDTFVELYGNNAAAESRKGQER
Experiment: as above

Row | SPOT signal as a fraction of Bim BH3's signal on the same receptor and array | Binder
61 | 0.36 | B3
62 | 1.07 | B20
63 | 0.65 | B7
64 | 0.16 | B8
65 | 1.18 | B12
66 | 0.03 | B13
67 | 0.32 | B21
68 | 0.03 | B16
69 | 0.05 | B22
70 | 0.07 | B17

Target: T3, Mcl-1, Q07820
Experiment: as above

Row | SPOT signal as a fraction of Bim BH3's signal on the same receptor and array | Binder
71 | 0.07 | B3
72 | 0.76 | B20
73 | 0.38 | B7
74 | 0.06 | B8
75 | 0.86 | B12
76 | 0.04 | B13
77 | 0.21 | B21
78 | 0.02 | B16
79 | 0.03 | B22
80 | 0.04 | B17
